Assay results from US20260232732A1 (FUNDACI INSTITUT DE RECERCA CONTRA LA LEUC MIA JOSEP …, published 2026).
Where no end group is shown, it is not given here. The star is where a group is joined. Biotin = O=C1N[C@H]2[C@H](CS[C@H]2CCCCC(=O)*)N1

Experiments:
[1] = biological target: T1, Peptide 1-BSA (MADDYGSEST-C conjugated to BSA) (human); experiment: ELISA; Ab 0.03125 ug/mL; repI
T1 peptide: MADDYGSESTC(BSA)
Experimental: (§1) In brief, plates with each non-conjugated peptide (50 μg/mL) or BSA-conjugated peptide (5 μg/mL) were coated in 0.58M carbonate-bicarbonate buffer pH9.5, 100 μL/well, at 4° C. […] After washing, wells were incubated with the 3, 3′,5,5′-Tetramethylbenzidine (TMB) HRP substrate and reactions were stopped with 2M HCl and OD450 was recorded.

[2] = biological target: T2, Peptide 3, non-conjugated (SSMEDYVNFN-C) (human); experiment: ELISA; Ab 0.03125 ug/mL; repI
T2 construct: With the extra C-terminal Cys
T2 peptide: SSMEDYVNFNC
Experimental: as §1

[3] = biological target: T3, BSA (negative control coating) (bovine, UniProt P02769 25-607); experiment: ELISA; Ab 0.03125 ug/mL; repI
T3 construct: also called Negative control BSA
Experimental: as §1

[4] = biological target: T4, Peptide 2, non-conjugated (GSESTSSMED-C) (human); experiment: ELISA; Ab 0.03125 ug/mL; repI
T4 construct: With the extra C-terminal Cys
T4 peptide: GSESTSSMEDC
Experimental: as §1

[5] = biological target: T5, antigen peptide-BSA (immunisation peptide #1 MADDYGSESTSSMEDYVNFNF-C conjugated to BSA) (human, extra C-terminal Cys conjugated to BSA); experiment: ELISA; Ab 0.03125 ug/mL; repI
T5 construct: also called Positive control antigen peptide-BSA; MADDY peptide
T5 peptide: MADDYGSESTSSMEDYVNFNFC
Experimental: as §1

[6] = biological target: T6, Peptide 4-BSA (SMEDYVNFNF-C conjugated to BSA) (human); experiment: ELISA; Ab 0.03125 ug/mL; repI
T6 peptide: SMEDYVNFNFC(BSA)
Experimental: as §1

[7] = biological target: T7, Peptide 2-BSA (GSESTSSMED-C conjugated to BSA) (human); experiment: ELISA; Ab 1 ug/mL; repII
T7 peptide: GSESTSSMEDC(BSA)
Experimental: as §1

[8] = biological target: T8, Peptide 4, non-conjugated (SMEDYVNFNF-C) (human); experiment: ELISA; Ab 1 ug/mL; repII
T8 construct: With the extra C-terminal Cys
T8 peptide: SMEDYVNFNFC
Experimental: as §1

[9] = biological target: T1, Peptide 1-BSA (MADDYGSEST-C conjugated …); experiment: ELISA; Ab 1 ug/mL; repII
Experimental: as §1

[10] = biological target: T9, Peptide 1, non-conjugated (MADDYGSEST-C) (human); experiment: ELISA; Ab 1 ug/mL; repII
T9 construct: With the extra C-terminal Cys
T9 peptide: MADDYGSESTC
Experimental: as §1

[11] = biological target: T2, Peptide 3, non-conjugated (SSMEDYVNFN-C); experiment: ELISA; Ab 1 ug/mL; repII
Experimental: as §1

[12] = biological target: T3, BSA (negative control coating); experiment: ELISA; Ab 1 ug/mL; repII
Experimental: as §1

[13] = biological target: T4, Peptide 2, non-conjugated (GSESTSSMED-C); experiment: ELISA; Ab 1 ug/mL; repII
Experimental: as §1

[14] = biological target: T5, antigen peptide-BSA (immunisation …); experiment: ELISA; Ab 1 ug/mL; repII
Experimental: as §1

[15] = biological target: T10, Peptide 3-BSA (SSMEDYVNFN-C conjugated to BSA) (human); experiment: ELISA; Ab 1 ug/mL; repII
T10 peptide: SSMEDYVNFNC(BSA)
Experimental: as §1

[16] = biological target: T6, Peptide 4-BSA (SMEDYVNFNF-C conjugated …); experiment: ELISA; Ab 1 ug/mL; repII
Experimental: as §1

[17] = biological target: T11, biotin-peptide TSSMEDYVNF (human); experiment: ELISA biotin-peptide; scFv 0.15625 ug/mL; repII
T11 peptide: Biotin-TSSMEDYVNF
Experimental: (§2) The peptides were synthesized naked or with a N-terminal Biotin modification with a purity of >98%. All four scFvs were verified by ELISA that can be detected with anti-His antibodies. ELISA was performed for scFv-peptide binding validation. Briefly, naked peptides were coated (50 μg/mL) in 0.58M carbonate-bicarbonate buffer pH9.5, 100 μL/well, 4° C. O/N. Then after blocking (3% BSA-PBS, 300 μL/well 37° C. 1.5 h) and washing (PBS+Tween-20 0.05% v/v (0.05% PBST), wells were incubated with each purified scFv antibody at concentration of 1 μg/mL in PBS at 37° C. 1 h. After washing (0.05% PBST), wells were incubated with secondary antibodies (goat anti-His IgG-HRP) in PBS, 37° C., 30 min. After washing, and incubation with TMB substrate, reactions were stopped with 2M HCl and reading was quantified at OD450.
(§3) ELISA with biotin-conjugated peptides (5 μg/mL) was performed very similar to described above with minor modifications.
(§4) A full curve ELISA was performed for each positive scFv/biotin-peptide pair in order to confirm previous results. Tables 15-17 show ELISA results of the dose-dependent full curve for each positive peptide with scFv “CCR9_HUM”, “Comp-2” and “Comp-3”, respectively.

[18] = biological target: T12, biotin-peptide MEDYVNFNFT (human); experiment: ELISA biotin-peptide; scFv 0.15625 ug/mL; repII
T12 peptide: Biotin-MEDYVNFNFT
Experimental: as §2, §3, §4

[19] = biological target: T13, biotin-peptide SMEDYVNFNF (human); experiment: ELISA biotin-peptide; scFv 0.15625 ug/mL; repII
T13 peptide: Biotin-SMEDYVNFNF
Experimental: as §2, §3, §4

[20] = biological target: T14, biotin-peptide SSMEDYVNFN (human); experiment: ELISA biotin-peptide; scFv 0.15625 ug/mL; repII
T14 peptide: Biotin-SSMEDYVNFN
Experimental: as §2, §3, §4

[21] = biological target: T11, biotin-peptide TSSMEDYVNF; experiment: ELISA biotin-peptide; scFv 10 ug/mL; repI
Experimental: as §2, §3, §4

[22] = biological target: T12, biotin-peptide MEDYVNFNFT; experiment: ELISA biotin-peptide; scFv 10 ug/mL; repI
Experimental: as §2, §3, §4

[23] = biological target: T13, biotin-peptide SMEDYVNFNF; experiment: ELISA biotin-peptide; scFv 10 ug/mL; repI
Experimental: as §2, §3, §4

[24] = biological target: T14, biotin-peptide SSMEDYVNFN; experiment: ELISA biotin-peptide; scFv 10 ug/mL; repI
Experimental: as §2, §3, §4

T3 sequence (P02769 25-607 limits assumed): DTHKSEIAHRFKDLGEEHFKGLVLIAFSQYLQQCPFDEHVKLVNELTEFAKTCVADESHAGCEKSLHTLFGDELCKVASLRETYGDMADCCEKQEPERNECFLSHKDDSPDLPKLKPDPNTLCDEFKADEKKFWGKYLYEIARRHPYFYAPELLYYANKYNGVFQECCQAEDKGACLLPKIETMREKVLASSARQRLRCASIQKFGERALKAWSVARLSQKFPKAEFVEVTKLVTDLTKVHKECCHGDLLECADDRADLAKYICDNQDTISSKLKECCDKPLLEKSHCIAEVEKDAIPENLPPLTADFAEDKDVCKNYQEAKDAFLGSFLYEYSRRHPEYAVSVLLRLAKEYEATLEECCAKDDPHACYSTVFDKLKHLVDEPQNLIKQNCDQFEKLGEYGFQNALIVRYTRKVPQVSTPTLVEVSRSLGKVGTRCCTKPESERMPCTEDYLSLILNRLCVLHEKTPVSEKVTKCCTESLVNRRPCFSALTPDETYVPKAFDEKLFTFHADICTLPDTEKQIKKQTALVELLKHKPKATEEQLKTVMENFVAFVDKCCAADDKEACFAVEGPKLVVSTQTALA

B1: anti-CCR9 antibody clone 115 (murine, from hybridoma #115) (antibody, V domains shown)
VH: QVQLKQSGPELVKPGTSVRVSCTASGYSFTDYIIYWVKQSHGRSLEWIGYIDPNNYNTRYSQKFKGKATLTVDKSSTSAFMHLNSLTSDDSAVYYCARDVYWGQGTTLTVSS
VL: DVVMTQTPLSLTVSLGDQASISCRSSQSLVHSNGKTYLQWYLQKPGQSPKLLIYKVSNRFSGVPDRFSGSGSGTDFTLKISRVEAEDLGVYFCAQSTHVWTFGGGTKLEIKR
notes: Mouse IgG1
OD450 [1]: 0.01 OD | OD450 [2]: 1.65 OD | OD450 [3]: 0.01 OD | OD450 [4]: 0.01 OD | OD450 [5]: 1.28 OD | OD450 [6]: 1.44 OD | OD450 [7]: 0.03 OD | OD450 [8]: 2.46 OD | OD450 [9]: 0.03 OD | OD450 [10]: 0.02 OD | OD450 [11]: 2.1 OD | OD450 [12]: 0.02 OD | OD450 [13]: 0.02 OD | OD450 [14]: 2.68 OD | OD450 [15]: 2.16 OD | OD450 [16]: 2.75 OD

B2: CCR9_HUM2 scFv (humanized anti-CCR9 scFv, SEQ ID NO: 17 with C-terminal 6xHis tag) (scFv)
scFv: QVQLVQSGAEVKKPGASVKVSCTASGYSFTDYIIYWVKQAHGQSLEWMGYIDPNNYNTRYSQKFQGKVTITVDKSSTSAYMELNSLTSDDTAVYYCARDVYWGQGTTVTVSSGGGGSGGGGSGGGGSGGGGSDVVMTQTPLSLSVTPGQPASISCRSSQSLVHSNGKTYLQWYLQKPGQSPKLLIYKVSNRFSGVPDRFSGSGSGTDFTLKISRVEAEDVGVYFCAQSTHVWTFGGGTKVEIKRAHHHHHH
OD450 [17]: 0.18 OD | OD450 [18]: 1.37 OD | OD450 [19]: 1.6 OD | OD450 [20]: 1.59 OD | OD450 [21]: 1.46 OD | OD450 [22]: 1.72 OD | OD450 [23]: 1.79 OD | OD450 [24]: 1.9 OD
